Data as given in article PMC10872757.

Target: MurAA-His6 (wild-type), UDP-N-acetylglucosamine 1-carboxyvinyl transferase of Enterococcus faecalis (Enterococcus faecalis)
Assay: thermal shift assay

Sequence of MurAA-His6 (wild-type), UDP-N-acetylglucosamine 1-carboxyvinyl transferase of Enterococcus faecalis (Enterococcus faecalis) (Q831A8 whole entry): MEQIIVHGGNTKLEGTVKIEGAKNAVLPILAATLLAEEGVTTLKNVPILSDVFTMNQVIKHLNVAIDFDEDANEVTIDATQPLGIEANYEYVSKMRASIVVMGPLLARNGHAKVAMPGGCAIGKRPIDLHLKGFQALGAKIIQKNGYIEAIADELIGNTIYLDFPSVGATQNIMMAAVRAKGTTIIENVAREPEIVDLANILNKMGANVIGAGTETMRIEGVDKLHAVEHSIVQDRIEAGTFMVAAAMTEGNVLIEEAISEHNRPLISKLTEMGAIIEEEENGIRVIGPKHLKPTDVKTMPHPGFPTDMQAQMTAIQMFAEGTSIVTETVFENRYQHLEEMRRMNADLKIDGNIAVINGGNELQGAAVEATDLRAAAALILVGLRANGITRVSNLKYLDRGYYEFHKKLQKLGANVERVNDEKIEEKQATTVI

B1: IreB (unphosphorylated), substrate of the PASTA kinase IreK of Enterococcus faecalis (natural protein)
chain: MGFTDETVRFDFDDNRKKAISETLETVYRALEEKGYNPINQIVGYLLSGDPAYIPRYQDARNLIRRHERDEIMEELTKYYLANHGIDIK
additional shift of the MurAA Tm with IreB: 16.5 °C
